Two molecules from PMC2148128 can be followed below.

Test [1] has as its target Crn1p (coronin1p), full-length recombinant (amino acids 1–651) (S. cerevisiae) (UniProt Q06440). The experiment in a line: co-sedimentation.
Test [2] deals with taxol-stabilized bovine brain microtubules (tubulin) (bovine) (UniProt Q6B856). The test can be described thus: co-sedimentation.

A word on the Kd: it is the concentration at which binding is half-saturated. “taxol-stabilized bovine brain microtubules (tubulin) (from UniProt Q6B856 1-445) (complex)”: the Kd in test [1] was 2 µM.

B1: Crn1p (coronin1p), full-length recombinant (amino acids 1–651) (natural protein)
chain: MSGKFVRASKYRHVFGQAAKKELQYEKLKVTNNAWDSNLLKTNGKFIAVNWNASGGGAFAVIPIEEVGKAPDQVPLFRGHTAQVLDTDFDPFNDHRIASGSDDSKIGIWDIPENYKFHDHVDEDGEPIDIKPVKFLTGHARKVGHVLYHPVAENVLASSSGDYTVKLWNVETGKDMITLKHPDMVTSMSFSYDGNYLATVARDKKLRVWNIREEKIVSEGPAHTGAKNQRVVWLGNSDRLATTGFSKLSDRQIGIWDAFNIEKGDLGGFYTVDQSSGILMPFYDEGNKILYLVGKGDGNIRYYEFQNDELFELSEFQSTEAQRGFAVAPKRMVNVKENEVLKGFKTVVDQRIEPVSFFVPRRSEEFQEDIYPDAPSNKPALTAEEWFSGKSVEGPILVSMRSIYDGSAPSFHEAKRPQQPTTQETALEEKKEQPKVEKPISESEKEVKQEAPKSPSPLKSASSSSTINHVLKEDNSINKLLKKSSDIDQVNNAEDPSRDTSGWEEADDEPAPIKIETPVTPTETKKDRTPKVEPSKELKPEPVSIATDRKQEQSLPQEEKSSEKTKSPEQEKSATPPSSITAAKTAITASSKEEPSAARTSPKSLGLKKSVEKLSTLVLQLEDVVDKLTKANLDKDERLLKLEQKIGELSK
Regarding B1, in test [2], the dissociation constant Kd lay in the range of 15 to 20 µM, the percent of Crn1p bound at 2 μM microtubules is 20% and the percent of Crn1p bound at 10 μM microtubules is 40%.
